Results: US20250042957A1 (Molecular Partners, published 2025)
Where a chain is given by its changes, count along the chain named. Names may count otherwise.

T1: CD3-specific binding domain (SEQ ID NO: 3) (biotinylated when used as immobilized SPR ligand (site not stated))
T1 construct: also called α-CD3 DARPin
T1 chain: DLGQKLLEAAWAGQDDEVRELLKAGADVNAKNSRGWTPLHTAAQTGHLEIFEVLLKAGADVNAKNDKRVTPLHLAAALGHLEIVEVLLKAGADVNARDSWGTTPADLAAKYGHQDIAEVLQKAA

T2: scCD3εγ
T2 chain 1: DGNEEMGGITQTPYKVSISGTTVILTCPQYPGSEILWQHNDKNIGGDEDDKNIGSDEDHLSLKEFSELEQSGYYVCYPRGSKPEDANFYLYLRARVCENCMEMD
T2 chain 2: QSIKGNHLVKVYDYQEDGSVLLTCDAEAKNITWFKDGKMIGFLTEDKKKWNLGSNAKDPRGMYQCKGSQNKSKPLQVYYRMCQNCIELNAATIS

B1: 2-in-1 DARPin 12 (SEQ ID NO: 7) (designed binder)
chain: DLDKKLLEAARAGQDDEVRILLKAGADVNAKDSTGWTPLHLAAPWGHPEIVEVLLKAGADVNAKDVYGWTPLHLAAAAGHLEIVEVLLKAGADVNAKDWLGWTPLHLAASHGHLEIVEVLLKAGADVNAQDKSGKTPADLAARAGHQDIAEVLQKAA
notes: N3C mono-domain; purified by its His-tag
B2: 2-in-1 DARPin 17 (SEQ ID NO: 10) (designed binder)
chain: B1 chain with D3G, E8Q, D15L, I20E, V66F, Y67Q
notes: as for B1
B3: 2-in-1 DARPin 15 (SEQ ID NO: 9) (designed binder)
chain: B1 chain with V66F, Y67Q
notes: as for B1
B4: 2-in-1 DARPin 13 (SEQ ID NO: 8) (designed binder)
chain: B1 chain with V66F
notes: as for B1
B5: 2-in-1 DARPin 11 (SEQ ID NO: 6) (designed binder)
chain: B1 chain with L74I, A78S
notes: as for B1
B6: 2-in-1 DARPin 20 (SEQ ID NO: 13) (designed binder)
chain: DLDKKLLEAARAGQDDEVRILLKAGADVNAKDSTGWTPLHLAAPWGHPEIVEVLLKAGADVNAKDFQGWTPLHLAAAAGHLEIVEVLLKAGADVNAKDVYGWTPLHLAAAAGHLEIVEVLLKAGADVNAKDWLGWTPLHLAASHGHLEIVEVLLKAGADVNAQDKSGKTPADLAARAGHQDIAEVLQKAA
notes: N4C mono-domain; purified by its His-tag
B7: 2-in-1 DARPin 19 (SEQ ID NO: 12) (designed binder)
chain: B6 chain with Q67K
notes: as for B6
B8: 2-in-1 DARPin 18 (SEQ ID NO: 11) (designed binder)
chain: B6 chain with L107I, A111S
notes: as for B6
B9: 2-in-1 DARPin 24 (SEQ ID NO: 93) (designed binder)
chain: DLGKKLLQAARAGQLDEVRELLKAGADVNAKDSQGRTPLHLAAFAGHLEIVEVLLKAGADVNAKDHAGWTPLHLAAYAGHLEIVEVLVKAGADVNAKDTEGKTPLHIAAWFGHLEIVEVLLKAGADVNAKDKSGKTPLHLAARAGHLEIVEVLLKAGADVNAKDNSGQTPLHEAAWAGHLEIVEVLLKAGADVNAKNSRGWTPLHTAAQTGHLEIFEVLLKAGADVNAKNDKRVTPLHLAAALGHLEIVEVLLKAGADVNARDSWGTTPADLAAKYGHQDIAEVLQKAA
notes: Family 2, from Parent nos 3 and 4; tag not specified
B10: 2-in-1 DARPin 25 (SEQ ID NO: 94) (designed binder)
chain: B9 chain with E173L
notes: as for B9
B11: 2-in-1 DARPin 23 (SEQ ID NO: 92) (designed binder)
chain: DLGKKLLQAARAGQLDEVRELLKAGADVNAKDSQGRTPLHLAAFAGHLEIVEVLLKAGADVNAKDHAGWTPLHLAAYAGHLEIVEVLVKAGADVNAKDTEGKTPLHIAAWFGHLEIVEVLLKAGADVNAKDKSGQTPLHLAAWAGHLEIVEVLLKAGADVNAKNSRGWTPLHTAAQTGHLEIFEVLLKAGADVNAKNDKRVTPLHLAAALGHLEIVEVLLKAGADVNARDSWGTTPADLAAKYGHQDIAEVLQKAA
notes: as for B9
B12: Switchdrug DARPin 15-1 (designed binder)
chain: MRGSHHHHHHGSDLGQKLLEAAWAGQDDEVRELLKAGADVNAKNSRGWTPLHTAAQTGHLEIFEVLLKAGADVNAKNDKRVTPLHLAAALGHLEIVEVLLKAGADVNARDSWGTTPADLAAKYGHQDIAEVLQKAAGSPTPTPTTPTPTPTTPTPTPTGSDLDKKLLEAARAGQDDEVRILLKAGADVNAKDSTGWTPLHLAAPWGHPEIVEVLLKAGADVNAKDFQGWTPLHLAAAAGHLEIVEVLLKAGADVNAKDWLGWTPLHLAASHGHLEIVEVLLKAGADVNAQDKSGKTPADLAARAGHQDIAEVLQKAA
notes: also called 2-in-1 DARPin15 in Format 1
B13: Switchdrug DARPin 18-1 (designed binder)
chain: MRGSHHHHHHGSDLGQKLLEAAWAGQDDEVRELLKAGADVNAKNSRGWTPLHTAAQTGHLEIFEVLLKAGADVNAKNDKRVTPLHLAAALGHLEIVEVLLKAGADVNARDSWGTTPADLAAKYGHQDIAEVLQKAAGSPTPTPTTPTPTPTTPTPTPTGSDLDKKLLEAARAGQDDEVRILLKAGADVNAKDSTGWTPLHLAAPWGHPEIVEVLLKAGADVNAKDFQGWTPLHLAAAAGHLEIVEVLLKAGADVNAKDVYGWTPLHIAAASGHLEIVEVLLKAGADVNAKDWLGWTPLHLAASHGHLEIVEVLLKAGADVNAQDKSGKTPADLAARAGHQDIAEVLQKAA
notes: also called 2-in-1 DARPin18 in Format 1
B14: Switchdrug DARPin 15-B (designed binder)
chain: MRGSHHHHHHGSDLDKKLLEAARAGQDDEVRILLKAGADVNAKDSTGWTPLHLAAPWGHPEIVEVLLKAGADVNAKDFQGWTPLHLAAAAGHLEIVEVLLKAGADVNAKDWLGWTPLHLAASHGHLEIVEVLLKAGADVNAQDKSGKTPADLAARAGHQDIAEVLQKAAGSPTPTPTTPTPTPTTPTPTPTGSDLGKKLLQAARAGQLDEVRELLKAGADVNAKDQYGRTPLHLAAIKGHLEIVEVLLKAGADVNAKDSLGYTPLHLAAVEGPLEIVEVLLKAGADVNAKDAYGQTPLHIAAAWGHLEIVEVLLKAVADVNAQDKSGKTPADLAARAGHQDIAEVLQKAAGSPTPTPTTPTPTPTTPTPTPTGSDLGQKLLEAAWAGQDDEVRELLKAGADVNAKNSRGWTPLHTAAQTGHLEIFEVLLKAGADVNAKNDKRVTPLHLAAALGHLEIVEVLLKAGADVNARDSWGTTPADLAAKYGHQDIAEVLQKAA
notes: also called 2-in-1 DARPin15 in Format B
B15: Switchdrug DARPin 15-A (designed binder)
chain: MRGSHHHHHHGSDLGKKLLQAARAGQLDEVRELLKAGADVNAKDQYGRTPLHLAAIKGHLEIVEVLLKAGADVNAKDSLGYTPLHLAAVEGPLEIVEVLLKAGADVNAKDAYGQTPLHIAAAWGHLEIVEVLLKAVADVNAQDKSGKTPADLAARAGHQDIAEVLQKAAGSPTPTPTTPTPTPTTPTPTPTGSDLGQKLLEAAWAGQDDEVRELLKAGADVNAKNSRGWTPLHTAAQTGHLEIFEVLLKAGADVNAKNDKRVTPLHLAAALGHLEIVEVLLKAGADVNARDSWGTTPADLAAKYGHQDIAEVLQKAAGSPTPTPTTPTPTPTTPTPTPTGSDLDKKLLEAARAGQDDEVRILLKAGADVNAKDSTGWTPLHLAAPWGHPEIVEVLLKAGADVNAKDFQGWTPLHLAAAAGHLEIVEVLLKAGADVNAKDWLGWTPLHLAASHGHLEIVEVLLKAGADVNAQDKSGKTPADLAARAGHQDIAEVLQKAA
notes: also called 2-in-1 DARPin15 in Format A

Target: T1, CD3-specific binding domain (SEQ ID NO: …)
Assay: SPR (ProteOn), biotinylated CD3-specific binding domain immobilized, multi-trace 50-0.195 nM, 25 C

| Kd [nM] | koff [s⁻¹] | kon [M⁻¹ s⁻¹] | Binder |
| --- | --- | --- | --- |
| 1.3 | 0.00081 | 624000 | B1 |
| 392 | – | – | B2 |
| 1360 | 0.205 | 151000 | B3 |
| 11.5 | 0.008 | 693000 | B4 |
| 0.96 | 0.00067 | 691000 | B5 |
| 1.44 | 0.0005 | 350000 | B6 |
| 0.44 | 0.0002 | 450000 | B7 |
| 1.7 | 0.00087 | 514000 | B8 |

Target: T2, scCD3εγ
Assay: SPR, bio-scCD3εγ coated on NAD chip, DARPin 333.33-4.11 nM

| Kd [nM] | Binder |
| --- | --- |
| 4.67 | B9 |
| 4.05 | B10 |
| 3.81 | B11 |

Target: T2, scCD3εγ
Assay: ELISA: plate-bound biotinylated scCD3εγ, His-tagged construct titrated, no VEGF
Description: (§1) The difference in binding of Switchdrug DARPins to scCD3εγ in presence and absence of VEGF was assessed. […] Said Switchdrug DARPins were mixed with a constant concentration of VEGF (100 nM) and tested for binding to scCD3εγ. […] The difference in EC50 of a construct in presence and absence of VEGF can be referred to as the “activation window”.
(§2) Switchdrug DARPins that were mixed with VEGF were titrated and pre-incubated for 1 day with VEGF in order to establish the thermodynamic equilibrium. These samples were loaded on the ELISA plate, incubated and washed, before the bound Switchdrug DARPins were detected as described above.

| EC50 (read off the curve) [nM] | Binder |
| --- | --- |
| ~50 | B12 |
| ~100 | B13 |

Target: T3, VEGF165 (UniProt P15692-4 27-191, biotinylated in the ELISA of Example 4 (site not stated))
T3 construct: also called biotinylated VEGF165; soluble VEGF
T3 sequence (P15692 other isoform, or with tags, fused parts or gaps limits assumed): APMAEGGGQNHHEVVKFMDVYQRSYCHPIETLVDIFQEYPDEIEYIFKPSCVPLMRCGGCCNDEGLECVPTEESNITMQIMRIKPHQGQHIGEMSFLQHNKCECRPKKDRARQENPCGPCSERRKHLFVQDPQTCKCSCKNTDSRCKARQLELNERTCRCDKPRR
Assay: ELISA: plate-bound biotinylated VEGF165, His-tagged construct titrated, no soluble VEGF, anti-His-HRP detection

| EC50 (read off the curve) [nM] | Binder |
| --- | --- |
| ~10 | B14 |
| ~20 | B15 |

Target: T3, VEGF165
Assay: SPR (ProteOn), VEGF165 immobilized, multi-trace 50-0.195 nM, 25 C

| Kd [nM] | koff [s⁻¹] | kon [M⁻¹ s⁻¹] | Binder |
| --- | --- | --- | --- |
| 6.66 | 0.0106 | 1.59e+06 | B1 |
| 0.18 | 0.00085 | 4.63e+06 | B2 |
| 0.02 | 0.0001 | 4.11e+06 | B3 |
| 0.81 | 0.00268 | 3.29e+06 | B4 |
| 11.1 | 0.0153 | 1.38e+06 | B5 |
| 0.69 | – | 1.29e+06 | B6 |
| 68.5 | 0.0949 | 1.38e+06 | B7 |
| 0.1 | 0.00012 | 1.16e+06 | B8 |

Target: T2, scCD3εγ
Assay: ELISA: plate-bound biotinylated scCD3εγ, His-tagged construct titrated in presence of 100 nM soluble VEGF
Description: as §1, §2

| EC50 (read off the curve) [nM] | Binder |
| --- | --- |
| ~3 | B12 |
| ~40 | B13 |

Target: T2, scCD3εγ
Assay: ELISA: plate-bound biotinylated scCD3εγ, His-tagged construct titrated without and with 100 nM soluble VEGF
Description: as §1, §2

| shift in EC50 upon addition of 100 nM VEGF [fold] | Binder |
| --- | --- |
| ~18 | B12 |
| ~3 | B13 |

Target: T1, CD3-specific binding domain (SEQ ID NO: …)
Assay: SPR; KD on CD3-specific binding domain (Ligand1) divided by KD on VEGF165 (Ligand2)

| KD ratio (Ligand1/Ligand2) | Binder |
| --- | --- |
| 0.195 | B1 |
| 2180 | B2 |
| 59100 | B3 |
| 14.2 | B4 |
| 0.0865 | B5 |
| 2.09 | B6 |
| 0.00647 | B7 |
| 17 | B8 |

Target: T2, scCD3εγ
Assay: ELISA on scCD3εγ, DARPin titrated

| EC50 (read off the curve) [nM] | Binder |
| --- | --- |
| ~10 | B9 |
| ~10 | B10 |
| ~30 | B11 |
